The record followed here is US20100173362A1 (published 2010).

First the molecules themselves.
B1: Chimeric 2B8 / Hu2B8_Hv1-f.1 (antibody, V domains shown)
VH: EVQLVQSGAEVKKPGATVKISCKVSGYTFTTYWMHWVQQAPGKGLEWMGEINPTNGHTNYNEKFQGRVTITADTSTDTAYMELSSLRSEDTAVYYCATNYVGSIFDYWGQGTLVTVSS
VL: NIVMTQSPKSMSMSVGERVTLSCKASENVVSYVSWYQQKPAQSPKLLIYGASNRNTGVPDRFTGSGSATDFTLTISSVRAEDLADYHCGQSYNYPYTFGGGTRLEIKR
B2: Hu2B8_Kv3-15.1 / Hu2B8_Hv1-f.1 (antibody, V domains shown)
VH: B1 VH
VL: EIVMTQSPATLSVSPGERATLSCKASENVVSYVSWYQQKPGQAPRLLIYGASNRNTGIPARFSGSGSGTEFTLTISSLQSEDFAVYYCGQSYNYPYTFGQGTKLEIKR
B3: Chimeric 2B8 / Hu2B8_Hv5-a.1 (antibody, V domains shown)
VH: EVQLVQSGAEVKKPGESLRISCKGSGYSFTTYWMHWVRQMPGKGLEWMGEINPTNGHTNYNPSFQGHVTISADKSISTAYLQWSSLKASDTAMYYCARNYVGSIFDYWGQGTLVTVSS
VL: B1 VL
B4: chimeric 2B8 (antibody, V domains shown)
VH: QVQLQQPGAELVKPGTSVKLSCKASGYTFTTYWMHWVNQRPGQGLEWIGEINPTNGHTNYNEKFKSKATLTVDKSSSTAYMQLSSLTSEDSAVYYCARNYVGSIFDYWGQGTTLTVSS
VL: B1 VL
B5: Hu2B8_Kv1-39.1 / Hu2B8_Hv1-f.1 (antibody, V domains shown)
VH: B1 VH
VL: DIQMTQSPSSLSASVGDRVTITCKASENVVSYVSWYQQKPGKAPKLLIYGASNRNTGVPSRFSGSGSGTDFTLTISSLQPEDFATYYCGQSYNYPYTFGQGTKLEIKR
B6: Hu2B8_Kv1-39.1 / Chimeric 2B8 (antibody, V domains shown)
VH: B4 VH
VL: B5 VL
B7: Hu2B8_Kv1-39.1 / Hu2B8_Hv5-a.1 (antibody, V domains shown)
VH: B3 VH
VL: B5 VL
B8: Hu2B8_Kv3-15.1 / Chimeric 2B8 (antibody, V domains shown)
VH: B4 VH
VL: B2 VL
B9: Hu2B8_Kv3-15.1 / Hu2B8_Hv5-a.1 (antibody, V domains shown)
VH: B3 VH
VL: B2 VL

recombinant human HGF (R&D Systems, Catalog No. 294-HGN-025), sequence (P14210 32-728): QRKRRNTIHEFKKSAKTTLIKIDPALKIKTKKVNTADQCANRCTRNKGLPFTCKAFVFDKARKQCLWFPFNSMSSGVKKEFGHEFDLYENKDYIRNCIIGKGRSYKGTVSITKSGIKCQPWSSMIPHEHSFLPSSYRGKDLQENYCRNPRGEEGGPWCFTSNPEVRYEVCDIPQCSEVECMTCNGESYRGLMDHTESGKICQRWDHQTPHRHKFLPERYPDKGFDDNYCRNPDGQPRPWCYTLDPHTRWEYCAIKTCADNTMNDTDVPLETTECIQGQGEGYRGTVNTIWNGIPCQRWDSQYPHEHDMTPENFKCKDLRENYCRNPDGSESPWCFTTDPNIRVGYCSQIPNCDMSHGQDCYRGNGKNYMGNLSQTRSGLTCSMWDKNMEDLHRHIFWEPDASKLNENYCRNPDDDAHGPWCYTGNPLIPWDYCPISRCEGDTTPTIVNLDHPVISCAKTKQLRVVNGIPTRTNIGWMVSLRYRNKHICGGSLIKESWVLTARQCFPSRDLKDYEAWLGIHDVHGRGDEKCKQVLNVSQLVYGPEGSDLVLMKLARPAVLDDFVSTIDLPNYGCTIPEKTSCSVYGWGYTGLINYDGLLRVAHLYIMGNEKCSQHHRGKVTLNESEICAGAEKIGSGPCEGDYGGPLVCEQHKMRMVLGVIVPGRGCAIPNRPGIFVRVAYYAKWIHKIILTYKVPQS

This assay addresses recombinant human HGF (R&D Systems, Catalog No. 294-HGN-025) (human, UniProt P14210 32-728). Kind of assay: SPR.
B1: the Kd amounted to 0.662 nM.
With B2 the figure was 0.466 nM.
The same measure for B3: 0.0044 nM.
Turning to B4, the Kd was 0.0116 nM.
The same measure for B5: 0.294 nM; for B6: 0.0136 nM; for B7: 0.0147 nM.
For B8, the Kd stood at 0.0055 nM.
As for B9, the Kd was found to be 0.0269 nM.
